Test [1] addresses HLA-A*03:01. Nature of the test: IEDB peptide-MHC binding, purified MHC/competitive/fluorescence; ≥ and ≤ were set here for values at or beyond the usual limits of such assays.
In test [2] the target is HLA-B*15:01. Described as above.
Test [3] concerns the target HLA-A*11:01. Described as above.
The target in test [4] is HLA-A*02:01. The test is described as above.
Test [5] concerns the target HLA-A*24:02. The test can be described thus: IEDB peptide-MHC binding, purified MHC/direct/fluorescence; filed as Kd, often an IC50 or EC50 that approximates it; ≥ and ≤ were set here for values at or beyond the usual limits of such assays.
Test [6] deals with HLA-A*03:01. Described as above.
In test [7] the target is HLA-B*15:01. The description is as above.
Test [8] has as its target HLA-B*07:02. Described as above.
The target in test [9] is HLA-A*26:01. The test is described as above. The conditions noted are these: source organism: Influenza A virus (A/shorebird/Delaware/141/2002(H9N9)).
Test [10] addresses HLA-A*69:01. Described as above.
For test [11], the target named is HLA-A*11:01. The description is as above. The following applies: source organism: Influenza A virus (A/turkey/Minnesota/511/1978(H9N2)).
The target in the next test is HLA-B*44:02. The test is described as above.
For another test, the target named is HLA-B*27:05. Described as above.
In a further test the target is HLA-B*58:01. The description is as above.
The next test addresses HLA-A*31:01. The test is described as above. The conditions noted are these: source organism: Influenza A virus (A/turkey/Minnesota/511/1978(H9N2)).
The target of test [12] is HLA-A*01:01. The test is described as above.
A further test addresses HLA-B*40:01. The test is described as above. The following applies: source organism: Influenza A virus (A/turkey/Minnesota/511/1978(H9N2)).
Another test concerns the target HLA-B*08:01. The description is as above.
For test [13], the target named is HLA-A*02:01. The description is as above. The conditions noted are these: source organism: Influenza A virus (A/turkey/Minnesota/511/1978(H9N2)).
The target in test [14] is HLA-B*46:01. The description is as above. The conditions noted are these: source organism: Influenza A virus (A/egret/Hong Kong/757.3/2002(H5N1)).
The target of another test is HLA-B*08:02. Described as above. The conditions noted are these: source organism: Influenza A virus(A/swine/Shandong/fNY/2003(H9N2)).
A further test addresses HLA-A*24:03. Described as above. The conditions noted are these: source organism: Zaire ebolavirus.
For another test, the target named is HLA-A*02:11. The test is described as above. The following applies: source organism: Zaire ebolavirus.
The next test deals with HLA-A*68:02. Described as above. The following applies: source organism: Zaire ebolavirus.
For another test, the target named is HLA-A*02:03. Described as above. The following applies: source organism: Zaire ebolavirus.
Another test deals with HLA-A*02:19. The test is described as above. The following applies: source organism: Zaire ebolavirus.
Another test deals with HLA-A*02:12. The description is as above. The conditions noted are these: source organism: Zaire ebolavirus.
In another test the target is HLA-A*02:16. Described as above. The conditions noted are these: source organism: Zaire ebolavirus.
For test [15], the target named is HLA-A*24:02. The test can be described thus: IEDB peptide-MHC binding, purified MHC/competitive/fluorescence; ≥ and ≤ were set here for values at or beyond the usual limits of such assays. The conditions noted are these: source organism: Zaire ebolavirus.
In another test the target is HLA-B*39:01. The test can be described thus: IEDB peptide-MHC binding, purified MHC/competitive/fluorescence; filed as Kd, often an IC50 or EC50 that approximates it; ≥ and ≤ were set here for values at or beyond the usual limits of such assays. The conditions noted are these: source organism: Zaire ebolavirus.
Test [16] deals with HLA-B*46:01. The description is as above. The conditions noted are these: source organism: Zaire ebolavirus.
The target of the next test is HLA-B*27:03. The test is described as above. The following applies: source organism: Zaire ebolavirus.
The target in test [17] is HLA-A*26:01. The test is described as above. The following applies: source organism: Zaire ebolavirus.
The target of test [18] is HLA-A*69:01. Described as above. The following applies: source organism: Zaire ebolavirus.
The target in the next test is HLA-B*15:17. Described as above. The following applies: source organism: Zaire ebolavirus.
The next test deals with HLA-B*18:01. The description is as above. The following applies: source organism: Zaire ebolavirus.
In a further test the target is HLA-B*51:01. Described as above. The conditions noted are these: source organism: Zaire ebolavirus.
A further test deals with HLA-B*57:01. Described as above. The following applies: source organism: Zaire ebolavirus.
Test [19] addresses HLA-A*02:01. The test is described as above. The following applies: source organism: Zaire ebolavirus.
Test [20] has as its target HLA-A*01:01. The test can be described thus: IEDB peptide-MHC binding, purified MHC/competitive/fluorescence; ≥ and ≤ were set here for values at or beyond the usual limits of such assays.
Test [21] has as its target HLA-B*07:02. Described as above.
[22] abbreviates: source organism: Vaccinia virus Copenhagen.
Where [23] appears, read: source organism: Influenza A virus (A/turkey/Minnesota/511/1978(H9N2)).
[24] abbreviates: source organism: Influenza A virus (A/Puerto Rico/8/34/Mount Sinai(H1N1)).
[25] abbreviates: source organism: Influenza A virus (A/egret/Hong Kong/757.3/2002(H5N1)).
[26] abbreviates: source organism: Zaire ebolavirus.
Setting [27] is: source organism: Sudan ebolavirus.

This is an account of results in the Immune Epitope Database (IEDB).

By IC50 is commonly meant the concentration that gives 50% inhibition. A higher IC50 goes with weaker potency in that assay. With AIITPIVFY, the concentration for half-maximal inhibition (IC50) is no less than 153 µM with HLA-A*03:01 [1] (setting [22]), 6.37 µM with HLA-B*15:01 [2] (setting [22]), 0.941 µM with HLA-A*11:01 [3] (setting [22]) and no less than 122 µM in the test with HLA-A*02:01 [4] (setting [22]).
The term Kd denotes the constant that tells how readily two partners part at equilibrium. A higher Kd goes with lower affinity. In the case of DLLENLQAY, the Kd with HLA-A*24:02 [5] (setting [23]) is no less than 20 µM; with HLA-A*03:01 [6] (setting [23]) it was no less than 20 µM; with HLA-B*15:01 [7] (setting [24]), 2.69 µM; in the test with HLA-B*07:02 [8] (setting [23]), no less than 20 µM; with HLA-A*26:01 [9], 0.115 µM; with HLA-A*69:01 [10] (setting [23]), no less than 20 µM. In addition, the Kd with HLA-A*11:01 [11], with HLA-B*44:02 (setting [23]), in the test with HLA-B*27:05 (setting [23]), with HLA-B*58:01 (setting [23]), with HLA-A*31:01 and with HLA-A*01:01 [12] (setting [23]) was no less than 20 µM in each case. The Kd in the test with HLA-B*40:01, in the test with HLA-B*08:01 (setting [23]) and with HLA-A*02:01 [13] was no less than 20 µM each time.
Turning to EEFTMVGRR, the Kd with HLA-A*24:02 [5] (setting [25]) was no less than 20 µM; in the test with HLA-A*03:01 [6] (setting [24]) it was 1.01 µM; in the test with HLA-B*15:01 [7] (setting [25]) it was no less than 20 µM; with HLA-B*07:02 [8] (setting [25]) it was no less than 20 µM; in the test with HLA-B*46:01 [14] it was no less than 20 µM; with HLA-A*69:01 [10] (setting [25]) it was no less than 20 µM. Also, the dissociation constant Kd with HLA-B*44:02 (setting [25]), with HLA-B*27:05 (setting [25]), with HLA-B*08:02, with HLA-B*58:01 (setting [25]), with HLA-A*01:01 [12] (setting [25]) and with HLA-B*08:01 (setting [25]) was no less than 20 µM throughout.
As for GLIQYPTAW, the Kd with HLA-A*03:01 [6] (setting [26]) is no less than 20 µM; with HLA-B*15:01 [7] (setting [26]), 2.2 µM; with HLA-A*24:03, no less than 20 µM; with HLA-A*02:11, no less than 20 µM; with HLA-A*68:02 it was no less than 20 µM; with HLA-B*58:01 (setting [26]), 0.5 µM. The Kd in the test with HLA-A*02:03, with HLA-A*02:19, in the test with HLA-A*02:12, in the test with HLA-A*02:16, with HLA-B*39:01 and with HLA-B*46:01 [16] was no less than 20 µM each time. The dissociation constant (Kd) in the test with HLA-B*27:03, with HLA-A*26:01 [17], in the test with HLA-A*69:01 [18], with HLA-B*15:17, with HLA-B*18:01 and with HLA-B*51:01 was no less than 20 µM each time. For the same sequence, the dissociation constant Kd with HLA-B*57:01 and in the test with HLA-A*02:01 [19] was no less than 20 µM throughout. The results for the IC50 with HLA-A*24:02 [15], in the test with HLA-B*15:01 [2] (setting [26]) and with HLA-A*02:01 [4] (setting [26]) were 13.2 µM, no less than 109 µM and 3.1 µM, respectively.
In the test with HLA-B*15:01 [2] (setting [26]), GQHIEGRQT displayed an IC50 of no less than 148 µM.
Consider ISDRATRKY, for which the IC50 came out at 38.6 µM with HLA-A*03:01 [1] (setting [27]), 57.6 µM in the test with HLA-B*15:01 [2] (setting [27]), 18.8 µM with HLA-A*11:01 [3] (setting [27]) and 1.89 µM with HLA-A*01:01 [20] (setting [27]).
RSRRQTNTK: the IC50 was 2.27 µM with HLA-A*03:01 [1] (setting [27]), 8.84 µM with HLA-B*07:02 [21] (setting [27]) and 1.47 µM with HLA-A*11:01 [3] (setting [27]).
As to STSPRMLTP, the 50% inhibitory concentration (IC50) with HLA-A*24:02 [15] was 69.9 µM; in the test with HLA-B*07:02 [21] (setting [26]), no less than 168 µM; with HLA-A*11:01 [3] (setting [26]) it was 44.1 µM.
Regarding VIFRLMRTN, the IC50 with HLA-A*24:02 [15] was no less than 150 µM; with HLA-A*03:01 [1] (setting [26]) it was 7.47 µM; in the test with HLA-B*15:01 [2] (setting [26]), no less than 175 µM; in the test with HLA-A*11:01 [3] (setting [26]), no less than 90.6 µM; with HLA-A*02:01 [4] (setting [26]), 42.7 µM.
Regarding VTLDGQQFY, the IC50 was no less than 192 µM with HLA-A*24:02 [15]; no less than 105 µM with HLA-A*03:01 [1] (setting [26]); 53.6 µM in the test with HLA-B*15:01 [2] (setting [26]); 4.92 µM with HLA-A*11:01 [3] (setting [26]); 3.88 µM with HLA-A*01:01 [20] (setting [26]); no less than 226 µM with HLA-A*02:01 [4] (setting [26]).
In the case of WPVMNHKNK, the IC50 with HLA-A*03:01 [1] (setting [26]) was no less than 180 µM; with HLA-B*07:02 [21] (setting [26]), 53.1 µM; in the test with HLA-A*11:01 [3] (setting [26]), no less than 185 µM.
